Measured values reported in US20230183713A1, “SITE-SPECIFIC RECOMBINASES FOR EFFICIENT AND SPECIFIC GENOME EDITING” (TECHNISCHE UNIVERSITÄt DRESDEN, published 2023).

Assays:
[1] = molecular target: T1, Cre recombinase monomer with Q311R mutation
T1 chain: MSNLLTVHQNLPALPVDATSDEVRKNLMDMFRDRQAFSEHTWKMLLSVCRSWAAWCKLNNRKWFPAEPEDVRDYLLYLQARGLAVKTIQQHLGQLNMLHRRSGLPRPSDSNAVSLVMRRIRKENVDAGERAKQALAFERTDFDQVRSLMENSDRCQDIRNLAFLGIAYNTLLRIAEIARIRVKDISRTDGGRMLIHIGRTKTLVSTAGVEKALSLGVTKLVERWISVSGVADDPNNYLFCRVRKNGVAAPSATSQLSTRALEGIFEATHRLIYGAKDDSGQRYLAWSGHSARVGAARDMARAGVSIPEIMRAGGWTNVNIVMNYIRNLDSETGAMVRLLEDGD

[2] = molecular target: T2, Cre recombinase monomer with Y324L mutation
T2 chain: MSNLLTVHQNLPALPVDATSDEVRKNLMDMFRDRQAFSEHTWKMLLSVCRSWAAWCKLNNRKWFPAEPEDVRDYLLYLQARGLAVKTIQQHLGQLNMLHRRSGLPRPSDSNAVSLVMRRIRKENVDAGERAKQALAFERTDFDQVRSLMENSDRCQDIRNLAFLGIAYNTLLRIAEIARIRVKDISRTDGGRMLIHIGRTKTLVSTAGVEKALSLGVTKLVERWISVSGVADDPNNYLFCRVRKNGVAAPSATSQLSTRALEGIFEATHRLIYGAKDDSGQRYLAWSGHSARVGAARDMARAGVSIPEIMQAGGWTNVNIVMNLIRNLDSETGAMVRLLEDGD

[3] = molecular target: T3, Cre recombinase monomer with Y324V mutation
T3 chain: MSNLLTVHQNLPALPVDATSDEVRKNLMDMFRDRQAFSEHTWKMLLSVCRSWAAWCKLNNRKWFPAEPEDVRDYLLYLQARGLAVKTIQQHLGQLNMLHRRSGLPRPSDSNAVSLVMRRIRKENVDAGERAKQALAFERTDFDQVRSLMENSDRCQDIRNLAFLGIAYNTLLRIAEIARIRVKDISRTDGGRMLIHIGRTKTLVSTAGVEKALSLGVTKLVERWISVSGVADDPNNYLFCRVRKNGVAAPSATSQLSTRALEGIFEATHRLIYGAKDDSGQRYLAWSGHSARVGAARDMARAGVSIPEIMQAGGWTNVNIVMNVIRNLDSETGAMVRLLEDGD

[4] = molecular target: T4, Cre recombinase monomer with Y324M mutation
T4 chain: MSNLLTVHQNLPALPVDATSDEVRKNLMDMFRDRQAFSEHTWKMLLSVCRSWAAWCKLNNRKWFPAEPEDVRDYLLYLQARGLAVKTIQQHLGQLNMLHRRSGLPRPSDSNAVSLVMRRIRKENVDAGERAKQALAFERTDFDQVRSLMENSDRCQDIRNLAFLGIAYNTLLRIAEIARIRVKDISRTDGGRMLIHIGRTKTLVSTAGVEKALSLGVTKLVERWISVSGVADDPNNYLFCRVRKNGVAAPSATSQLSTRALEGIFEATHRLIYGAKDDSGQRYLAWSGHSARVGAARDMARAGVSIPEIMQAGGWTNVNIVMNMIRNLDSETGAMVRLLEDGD

[5] = molecular target: T5, Cre recombinase monomer with W315T mutation
T5 chain: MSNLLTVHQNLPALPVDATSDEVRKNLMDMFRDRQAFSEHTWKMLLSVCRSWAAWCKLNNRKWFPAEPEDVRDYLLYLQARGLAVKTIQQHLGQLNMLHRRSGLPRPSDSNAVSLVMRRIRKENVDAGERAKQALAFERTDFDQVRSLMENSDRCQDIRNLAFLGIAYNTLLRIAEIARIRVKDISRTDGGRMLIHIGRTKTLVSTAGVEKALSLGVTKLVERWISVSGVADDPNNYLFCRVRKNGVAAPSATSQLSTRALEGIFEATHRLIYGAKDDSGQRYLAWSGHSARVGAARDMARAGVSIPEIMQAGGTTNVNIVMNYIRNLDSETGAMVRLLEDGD

[6] = molecular target: T6, Cre recombinase monomer with E176M mutation
T6 chain: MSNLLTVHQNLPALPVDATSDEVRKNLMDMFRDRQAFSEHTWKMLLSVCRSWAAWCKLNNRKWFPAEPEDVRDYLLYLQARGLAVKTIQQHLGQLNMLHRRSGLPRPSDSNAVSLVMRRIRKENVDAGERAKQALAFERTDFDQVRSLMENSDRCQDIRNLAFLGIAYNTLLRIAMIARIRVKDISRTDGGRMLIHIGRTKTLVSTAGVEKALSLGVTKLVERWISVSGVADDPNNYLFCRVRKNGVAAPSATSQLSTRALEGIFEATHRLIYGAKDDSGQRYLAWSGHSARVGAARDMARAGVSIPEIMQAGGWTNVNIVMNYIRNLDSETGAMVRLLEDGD

[7] = molecular target: T7, Cre recombinase monomer with E176H mutation
T7 chain: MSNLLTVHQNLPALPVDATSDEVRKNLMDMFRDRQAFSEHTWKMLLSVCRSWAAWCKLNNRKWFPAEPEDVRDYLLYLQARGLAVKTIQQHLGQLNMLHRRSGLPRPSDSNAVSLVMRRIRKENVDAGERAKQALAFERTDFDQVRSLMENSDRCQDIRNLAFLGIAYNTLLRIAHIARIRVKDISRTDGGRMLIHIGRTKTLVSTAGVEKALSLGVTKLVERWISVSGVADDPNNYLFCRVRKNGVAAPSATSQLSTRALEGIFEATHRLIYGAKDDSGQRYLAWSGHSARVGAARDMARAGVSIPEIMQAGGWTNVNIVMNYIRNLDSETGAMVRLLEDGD

B1: Cre recombinase monomer with K201P mutation (protein)
chain: MSNLLTVHQNLPALPVDATSDEVRKNLMDMFRDRQAFSEHTWKMLLSVCRSWAAWCKLNNRKWFPAEPEDVRDYLLYLQARGLAVKTIQQHLGQLNMLHRRSGLPRPSDSNAVSLVMRRIRKENVDAGERAKQALAFERTDFDQVRSLMENSDRCQDIRNLAFLGIAYNTLLRIAEIARIRVKDISRTDGGRMLIHIGRTPTLVSTAGVEKALSLGVTKLVERWISVSGVADDPNNYLFCRVRKNGVAAPSATSQLSTRALEGIFEATHRLIYGAKDDSGQRYLAWSGHSARVGAARDMARAGVSIPEIMQAGGWTNVNIVMNYIRNLDSETGAMVRLLEDGD
In the case of B1, the “Median dimer activity (recombination on loxP)” value (“Median dimer activity” for short) [1] is reported as 95% and the “Median dimer activity” value [2] is reported as 59%.

B2: Cre recombinase monomer with W315M mutation (protein)
chain: MSNLLTVHQNLPALPVDATSDEVRKNLMDMFRDRQAFSEHTWKMLLSVCRSWAAWCKLNNRKWFPAEPEDVRDYLLYLQARGLAVKTIQQHLGQLNMLHRRSGLPRPSDSNAVSLVMRRIRKENVDAGERAKQALAFERTDFDQVRSLMENSDRCQDIRNLAFLGIAYNTLLRIAEIARIRVKDISRTDGGRMLIHIGRTKTLVSTAGVEKALSLGVTKLVERWISVSGVADDPNNYLFCRVRKNGVAAPSATSQLSTRALEGIFEATHRLIYGAKDDSGQRYLAWSGHSARVGAARDMARAGVSIPEIMQAGGMTNVNIVMNYIRNLDSETGAMVRLLEDGD
For B2, the “Median dimer activity” value [2] was 71%.

B3: Cre recombinase monomer with K201Y mutation (protein)
chain: MSNLLTVHQNLPALPVDATSDEVRKNLMDMFRDRQAFSEHTWKMLLSVCRSWAAWCKLNNRKWFPAEPEDVRDYLLYLQARGLAVKTIQQHLGQLNMLHRRSGLPRPSDSNAVSLVMRRIRKENVDAGERAKQALAFERTDFDQVRSLMENSDRCQDIRNLAFLGIAYNTLLRIAEIARIRVKDISRTDGGRMLIHIGRTYTLVSTAGVEKALSLGVTKLVERWISVSGVADDPNNYLFCRVRKNGVAAPSATSQLSTRALEGIFEATHRLIYGAKDDSGQRYLAWSGHSARVGAARDMARAGVSIPEIMQAGGWTNVNIVMNYIRNLDSETGAMVRLLEDGD
For B3, the “Median dimer activity” value [1] was 90% and the “Median dimer activity” value [3] was 26%.

B4: Cre recombinase monomer with W315G mutation (protein)
chain: MSNLLTVHQNLPALPVDATSDEVRKNLMDMFRDRQAFSEHTWKMLLSVCRSWAAWCKLNNRKWFPAEPEDVRDYLLYLQARGLAVKTIQQHLGQLNMLHRRSGLPRPSDSNAVSLVMRRIRKENVDAGERAKQALAFERTDFDQVRSLMENSDRCQDIRNLAFLGIAYNTLLRIAEIARIRVKDISRTDGGRMLIHIGRTKTLVSTAGVEKALSLGVTKLVERWISVSGVADDPNNYLFCRVRKNGVAAPSATSQLSTRALEGIFEATHRLIYGAKDDSGQRYLAWSGHSARVGAARDMARAGVSIPEIMQAGGGTNVNIVMNYIRNLDSETGAMVRLLEDGD
With B4 the “Median dimer activity” value [4] was 35% and the “Median dimer activity” value [3] was 37%.

B5: Cre recombinase monomer with W315L mutation (protein)
chain: MSNLLTVHQNLPALPVDATSDEVRKNLMDMFRDRQAFSEHTWKMLLSVCRSWAAWCKLNNRKWFPAEPEDVRDYLLYLQARGLAVKTIQQHLGQLNMLHRRSGLPRPSDSNAVSLVMRRIRKENVDAGERAKQALAFERTDFDQVRSLMENSDRCQDIRNLAFLGIAYNTLLRIAEIARIRVKDISRTDGGRMLIHIGRTKTLVSTAGVEKALSLGVTKLVERWISVSGVADDPNNYLFCRVRKNGVAAPSATSQLSTRALEGIFEATHRLIYGAKDDSGQRYLAWSGHSARVGAARDMARAGVSIPEIMQAGGLTNVNIVMNYIRNLDSETGAMVRLLEDGD
In the case of B5, the “Median dimer activity” value [5] is reported as 50%.

B6: Cre recombinase monomer with R173Q mutation (protein)
chain: MSNLLTVHQNLPALPVDATSDEVRKNLMDMFRDRQAFSEHTWKMLLSVCRSWAAWCKLNNRKWFPAEPEDVRDYLLYLQARGLAVKTIQQHLGQLNMLHRRSGLPRPSDSNAVSLVMRRIRKENVDAGERAKQALAFERTDFDQVRSLMENSDRCQDIRNLAFLGIAYNTLLQIAEIARIRVKDISRTDGGRMLIHIGRTKTLVSTAGVEKALSLGVTKLVERWISVSGVADDPNNYLFCRVRKNGVAAPSATSQLSTRALEGIFEATHRLIYGAKDDSGQRYLAWSGHSARVGAARDMARAGVSIPEIMQAGGWTNVNIVMNYIRNLDSETGAMVRLLEDGD
For B6, the “Median dimer activity” value [1] was 92% and the “Median dimer activity” value [6] was 32%.

B7: Cre recombinase monomer with W315Q mutation (protein)
chain: MSNLLTVHQNLPALPVDATSDEVRKNLMDMFRDRQAFSEHTWKMLLSVCRSWAAWCKLNNRKWFPAEPEDVRDYLLYLQARGLAVKTIQQHLGQLNMLHRRSGLPRPSDSNAVSLVMRRIRKENVDAGERAKQALAFERTDFDQVRSLMENSDRCQDIRNLAFLGIAYNTLLRIAEIARIRVKDISRTDGGRMLIHIGRTKTLVSTAGVEKALSLGVTKLVERWISVSGVADDPNNYLFCRVRKNGVAAPSATSQLSTRALEGIFEATHRLIYGAKDDSGQRYLAWSGHSARVGAARDMARAGVSIPEIMQAGGQTNVNIVMNYIRNLDSETGAMVRLLEDGD
For B7, the “Median dimer activity” value [3] was 97%.

B8: Cre recombinase monomer with R292Y mutation (protein)
chain: MSNLLTVHQNLPALPVDATSDEVRKNLMDMFRDRQAFSEHTWKMLLSVCRSWAAWCKLNNRKWFPAEPEDVRDYLLYLQARGLAVKTIQQHLGQLNMLHRRSGLPRPSDSNAVSLVMRRIRKENVDAGERAKQALAFERTDFDQVRSLMENSDRCQDIRNLAFLGIAYNTLLRIAEIARIRVKDISRTDGGRMLIHIGRTKTLVSTAGVEKALSLGVTKLVERWISVSGVADDPNNYLFCRVRKNGVAAPSATSQLSTRALEGIFEATHRLIYGAKDDSGQRYLAWSGHSAYVGAARDMARAGVSIPEIMQAGGWTNVNIVMNYIRNLDSETGAMVRLLEDGD
In the case of B8, the “Median dimer activity” value [1] is reported as 96% and the “Median dimer activity” value [4] is reported as 90%.

B9: Cre recombinase monomer with R173C mutation (protein)
chain: MSNLLTVHQNLPALPVDATSDEVRKNLMDMFRDRQAFSEHTWKMLLSVCRSWAAWCKLNNRKWFPAEPEDVRDYLLYLQARGLAVKTIQQHLGQLNMLHRRSGLPRPSDSNAVSLVMRRIRKENVDAGERAKQALAFERTDFDQVRSLMENSDRCQDIRNLAFLGIAYNTLLCIAEIARIRVKDISRTDGGRMLIHIGRTKTLVSTAGVEKALSLGVTKLVERWISVSGVADDPNNYLFCRVRKNGVAAPSATSQLSTRALEGIFEATHRLIYGAKDDSGQRYLAWSGHSARVGAARDMARAGVSIPEIMQAGGWTNVNIVMNYIRNLDSETGAMVRLLEDGD
In the case of B9, the “Median dimer activity” value [1] is reported as 91%, the “Median dimer activity” value [6] is reported as 27% and the “Median dimer activity” value [7] is reported as 65%.
